In the RNAGym collection of RNA variant scans (doi:10.7554/elife.80360):

B1: Twister Ribozyme (parent)
chain: AACACUGCCAAUGCCGGUCCCAAGCCCGGAUAAAAGUGGAGGGGGCGG

Variants of: B1
Assay: self-cleavage, relative activity (ratio to wild type); higher = more cleavage; co-transcriptional

Variant	self-cleavage
C5U G41C	0.137
C5G U12G	0.768
C5U C21G	0.0614
U6C A32U	0.488
U6C A32C	0.349
A4U A34C	0.057
A4U A34U	0.068
A4U A10C	0.156
A4U A10U	0.0773
A4U G7U	0.0685
U6A A11G	0.897
U6A A11C	0.61
C5U G47U	0.691
C5U G47A	0.727
C5U G47C	0.315
U6A C9U	0.223
U6A C9A	0.153
U6A A40G	0.178
U6A A40C	0.15
C5A G7A	0.0771
U6A A30C	0.428

Variant	self-cleavage
U6A A30G	0.884
C5G U6C	0.16
U6A G16A	0.604
U6A G16U	0.43
U6A G16C	0.135
U6A A22G	0.0598
U6A G42U	0.163
U6A G42A	0.198
C5U C27A	0.21
C5U C27G	0.0666
C5U C46A	0.764
C5G C8G	0.0701
C5G C8U	0.294
U6A A34G	0.731
U6A A34C	0.859
A4U G17C	0.0361
C5A G41C	0.0838
C5G A22C	0.571
C5A G13A	0.132
C5A G13C	0.105
C5A G13U	0.0864

Variant	self-cleavage
C5G G17U	0.0612
C5G G17C	0.0444
C5U U12G	0.763
C5U U12C	0.769
U6A U37A	0.142
C5G G42U	0.0923
C5G G42A	0.108
C5G G42C	0.226
A4U A40U	0.0743
A4U A40C	0.0425
A4U G38A	0.0789
C5A A11C	0.169
C5A A11U	0.351
C5G G47U	0.521
C5G G47C	0.269
A4U C15G	0.0221
A4U C15U	0.124
C5G A32U	0.515
C5G A32C	0.57
C5G A35C	0.742
C5G A35G	0.696

Variant	self-cleavage
C5A C46A	0.652
C5A C46U	0.681
C5G C14G	0.0784
C5G C14A	0.557
U6A G43U	0.245
U6A G43C	0.172
A4U A23G	0.0721
A4U A23C	0.0467
C5G G48C	0.77
C5G G48A	0.67
U6C A23G	0.0715
U6C A23C	0.0308
U6A G7U	0.101
U6A G7A	0.224
A4G U37C	0.99
C5G A11C	0.298
U6A G29C	0.335
U6A C21A	0.107
U6A C21U	0.0948
U6A C21G	0
C5A G24C	0.0665
